Assay results reported in US20260007697A1 (FUNDACI N PARA LA INVESTIGACI N M DICA APLICADA, published 2026).

Experiments:
[1] = target: recombinant human EDA protein (extra-domain A of fibronectin), His-tagged (human) (UniProt P02751); experiment: flow cytometry, CD8+ control PSMA CAR-T cells incubated with soluble human His-EDA (50 µg/ml per legend paragraph 32), anti-His-APC; light grey histogram, lower number of the panel humanEDA, CD8 row [cont.) C]
[2] = target: recombinant human EDA protein (extra-domain A of fibronectin), His-tagged (human) (UniProt P02751); experiment: flow cytometry, CD4+ control PSMA CAR-T cells incubated with soluble human His-EDA (50 µg/ml per legend paragraph 32), anti-His-APC; light grey histogram, lower number of the panel humanEDA, CD4 row [cont.) C]
[3] = target: recombinant mouse EDA protein (extra-domain A of fibronectin), His-tagged (mouse) (UniProt P11276); experiment: flow cytometry, CD4+ control PSMA CAR-T cells incubated with soluble mouse His-EDA (50 µg/ml per legend paragraph 32), anti-His-APC; light grey histogram, lower number of the panel mouseEDA, CD4 row [cont.) C]
recombinant mouse EDA protein (extra-domain A of fibronectin), His-tagged (mouse), sequence (P11276 1721-1810 limits assumed): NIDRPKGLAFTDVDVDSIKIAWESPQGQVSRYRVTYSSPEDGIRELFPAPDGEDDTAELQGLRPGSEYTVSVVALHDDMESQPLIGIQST

[4] = target: recombinant mouse EDA protein (extra-domain A of fibronectin), His-tagged (mouse) (UniProt P11276); experiment: flow cytometry, CD8+ control PSMA CAR-T cells incubated with soluble mouse His-EDA (50 µg/ml per legend paragraph 32), anti-His-APC; light grey histogram, lower number of the panel mouseEDA, CD8 row [cont.) C]
[5] = target: T1, recombinant mouse EDA protein (extra-domain A of fibronectin), His-tagged (mouse, UniProt P11276 1721-1810); experiment: Bio-Layer Interferometry (Octet N1), scFv F8 on AR2G biosensors, soluble EDA
T1 construct: Recombinant protein carrying a His tag; also called murine EDA; EDA (m)
T1 sequence (P11276 1721-1810 limits assumed): as above
Method: (§1) The resulting plasmid was transfected into BL21(DE3) cells for the expression of the recombinant scFv which was purified by affinity chromatography using protein A Sepharose (Amersham Biosciences) according to the manufacturer's instructions. Purified antibody fragments were analyzed by Coomassie and Western blot using anti-His antibodies. Recognition of EDA protein by the purified scFv F8 fragment was tested by ELISA using plates coated with recombinant EDA protein produced as described previously (Lasarte J J et al., 2007). The equilibrium dissociation constant (KD) of scFv F8 to soluble human and mouse EDAs was calculated by Bio-Layer Interferometry (BLI) using an Octet N1 (Sartorius) (FIG. 13). The scFv F8 was coated to the AR2G Biosensors (Fortébio) following manufacturer's instructions.
(§2) To evaluate the functionality of the CAR construct, EDA CAR-T cells were cultured in EDA coated plates for 48 h. Both CD4+ and CD8+ EDA CAR-T, but not PSMA CAR-T cells produced high amounts of IFN-γ (FIG. 3D) and proliferated in response to EDA (FIG. 3E). […] This discrepancy could be due to the methodological differences between assays. Indeed, in the binding experiments EDA proteins are added in solution and bind to the CAR-T cells directly. […]

[6] = target: T2, recombinant human EDA protein (extra-domain A of fibronectin), His-tagged (human, UniProt P02751 1722-1811); experiment: as above
T2 construct: Recombinant protein carrying a His tag; also called hEDA; EDA (h)
T2 sequence (P02751 1722-1811 limits assumed): as the sequence (P11276 1721-1810 limits assumed) above, with R44H, D54E, I87T counted along it
Method: as §1, §2

[7] = target: T1, recombinant mouse EDA protein …; experiment: Bio-Layer Interferometry (Octet N1), scFv F8 on AR2G biosensors, soluble mEDA at 1, 2, 4 and 8 uM; table column Kd (1/s) [cont.) E]
From the text: as §1, with “A DNA sequence coding for the scFv recombinant antibody fragment F8 (Rybak J N et al., 2007) was cloned in pET20b plasmid (Novagen), which enables expression of fusion proteins carrying six histidine residues at the carboxyl terminus. The resulting” for “The resulting”

[8] = target: T2, recombinant human EDA protein …; experiment: Bio-Layer Interferometry (Octet N1), scFv F8 on AR2G biosensors, soluble hEDA at 1, 2, 4 and 8 uM; table column Kd (1/s) [cont.) E]
From the text: as §1, with “A DNA sequence coding for the scFv recombinant antibody fragment F8 (Rybak J N et al., 2007) was cloned in pET20b plasmid (Novagen), which enables expression of fusion proteins carrying six histidine residues at the carboxyl terminus. The resulting” for “The resulting”

[9] = target: T1, recombinant mouse EDA protein …; experiment: IFN-gamma release (ELISA) by CAR-T cells on EDA-coated plates, 48 h (functional read-out, not direct binding)
Method: Also CAR-T cells were plated for 24 h in the presence of irradiated PM299L-EDA and PM299L-Thy1.1 cells. The number of IFN-γ producing cells was measured by ELISPOT as described by Lozano et al. (Lozano T et al., 2019). CAR-T cell proliferation and IFN-γ production were measured by 3H-thymidine incorporation (0.5 μCi per well) and ELISA, respectively, as described by Casares et al. (Casares N et al., 2010). In some cases, CAR-T cell proliferation was measured by Cell trace violet (CTV) dilution assay; Lymphocytes were incubated with the dye (5 μM) for 15 minutes at 37° C. and washed with RPMI 10% FBS. 8×10⁵ labelled lymphocytes were plated and co-incubated with PM299L-EDA^high and PM299L-Thy1.1 tumor cells at a ratio of 1:1 for 72 hours at 37° C. Subsequently, the proliferating population (measured by CTV dilution) was analyzed within GFP+ lymphocytes. The proliferation index was calculated as the ratio between proliferating cells in the presence of tumor cells expressing EDA (PM299L-EDA^high) and the number of proliferating cells in the presence of tumor cells not expressing EDA (PM299L. Thy1.1) at the end of the co-culture.
EDA CAR-T cells were generated by retroviral transduction of CD4⁺ or CD8⁺ T cells with the corresponding retrovirus. Five days after infection, T cells were analyzed by flow cytometry. […] IFN-g released to the culture supernatant was measured by ELISA.

recombinant human EDA protein (extra-domain A of fibronectin), His-tagged (human), sequence (P02751 1722-1811 limits assumed): as the sequence (P11276 1721-1810 limits assumed) above, with R44H, D54E, I87T counted along it

PSMA CAR (anti-human PSMA scFv from mouse hybridoma J591 in the murine 4-1BB-CD3zeta cassette) on mouse T cells
MFI (mean fluorescence intensity) [1]: 203
MFI (mean fluorescence intensity) [2]: 269
MFI (mean fluorescence intensity) [3]: 49
MFI (mean fluorescence intensity) [4]: 46

B1: anti-EDA F8 scFv (purified recombinant antibody fragment) (scFv)
scFv: EVQLLESGGGLVQPGGSLRLSCAASGFTFSVMKMSWVRQAPGKGLEWVSAISGSGGSTYYADSVKGRFTISRDNSKNTLYLQMNSLRAEDTAVYYCAKSTHLYLFDYWGQGTLVTVSSGGGGSGGGGSGGGGSGGGGSEIVLTQSPGTLSLSPGERATLSCRASQSVSNAFLAWYQQKPGQAPRLLIYGASSRATGIPDRFSGSGSGTDFTLTISRLEPEDFAVYYCQQMRGRPPTFGQGTKVEIKHHHHHH
notes: Expressed in E. coli BL21(DE3) from pET20b and purified on protein A Sepharose; also called scFv F8; scFv (F8)
Kd [5]: 99.5 nM
Kd [6]: 77.6 nM
koff [7]: 0.000342 s⁻¹
koff [8]: 0.000532 s⁻¹

B2: chimeric EDA CAR with anti-EDA C27 scFv (VH/VL of antibody 27A12.70) in the murine 4-1BB-CD3zeta cassette, on mouse T cells (other)
chain: DVQLQESGPDLVKPSQSLSLTCTVTGYSITSGYSWHWIRQFPGNKLEWMGYIHYSGIANYNPSLKSRISITRDTSKNHFFLQLNSVTTEDTATYYCATEKTGFFDYWGQGTTLTVSSGGGGSGGGGSGGGGSGGGGSDVVMTQTPLSLPVSLGDQASISCRSSQSLVHSNGNTYLHWYLQKPGQSPKLLIYKVSNRFSGVPDRFSGSGSGTDFTLKISRVEAEDLGVYFCSQSAHVPPTFGGGTKLEIKR
notes: also called C27 EDA CAR-T; clone C27; not shown: limits on that entry
binding result [9]: no binding (tested: 5 µg/ml coated (FIG. 14 legend))
